The results in this text go back to patent US20240352438A1, “MEANS AND METHODS FOR DETOXIFYING OCHRATOXIN A” (DSM Austria GmbH, priority 2021, published 2024).

A short description of series [1]: OTA detoxification activity assay (specific activity, fluorescence reduction ex/em 390/450 nm). Conditions: SEQ ID NO: 1 = 100%. It counts as biochemical. In short, it runs like this:
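Recombinant enzyme preparation with 200 ng/mL OTA in 100 mM sodium phosphate, at pH 6.0 and pH 7.5, 37° C. Degradation followed as the fall in fluorescence at ex/em 390/450 nm. Specific activity taken from the initial linear slope; one unit degrades 1 μmol OTA per min at a starting OTA of […].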

The nature of series [2]: Enzymatic activity comparison: activity remaining after 65° C. for 10 min at pH 6.0, relative to SEQ ID NO: 1. It counts as physicochemical. How it is done:
To compare the temperature behavior and thermostability of selected enzymes to one another, enzyme was incubated at 65° C. for 10 min at pH 6.0. The enzymatic activity remaining after incubation was compared to the remaining activity of the enzyme of SEQ ID NO: 1 after incubation, the latter being set to 100%, see Table 16.

B1: 303 (protein)
chain: MTTRTRILTAFLSLLAANACAADAAPAAPHTVVLRAARMFDGASGKLVDHPQLTIVGNKIVRIAQGDKAEVPAGAEVVDLGDATLLPGFIDAHVHLSGQSSDNWYGDFFDNMMRFPAEQALYGAYYARITLEAGFTSVRDVGSTDWVALGLRNAIDAGKVPGPRMLVSNYAVGSTGGHADQDPIPPHKLPLAGPLQGVCNGPEECRAAVRYQIKYGANVIKFMPSGGVLSLSDPVDAPELSQDEMNAVIGESHAWGRKVAAHAHGDKAAKMAVAAGVDSIEHGSFIEDDTLRAMKAKNVYLVPTISAIAHVEEKIGTFPPVIAEKGRAAAAHLRQTFRHAVQIGVPIALGTDAGLPAHGSNAREFRYMVENGLTPAQALLAGTANAARLLGTFDRVGTLEAGKLADVVAVPGNPIADITVTERPLFVMKDGVVVRRDAVR
modifications: exemplary polypeptide
With B1, in series [1], the “Specific OTA detoxification activities in % compared to the enzyme of SEQ ID NO: 1, pH 6.0” value amounted to 167% and the “Specific OTA detoxification activities in % compared to the enzyme of SEQ ID NO: 1, pH 7.5” value is given as 110%. For the same molecule, the “Enzymatic activity remaining after incubation, compared to SEQ ID NO: 1 (set to 100%)” value in series [2] was determined as 56%.

B2: 307 (protein)
chain: MTTRTRILTAFLSLLAANACAADAAPAAPHTVVLRAARMFDGASGKLVDHPQLTIVGNKIVRIAQGDKAEVPAGAEVVDLGDATLLPGFIDAHVHLSGQSSDNWYGDFFDNMMRFPAEQALYGAYYARITLEAGFTSVRDVGSTDWVALGLRNAIDAGKVPGPRMLVSNYAVGSTGGHADQDPIPPHKLPLAGPLQGVCNGPEECRAAVRYQIKYGANVIKFMPSGGVLSLSDPVDAPELSQDEMNAVIGESHAWGRKVAAHAHGDKAAKMAVAAGVDSIEHGSFIEDDTLRAMKAKNVYLVPTISAAAHVEEKIGTFPPVIAEKGRAAMAHLRQTFRHAVQIGVPIALGTDAGVGAHGSNAREFRYMVENGLTPAQALLAGTANAARLLGTFDRVGTLEAGKLADVVAVPGNPIADITVTERPLFVMKDGVVVRRDAVR
modifications: exemplary polypeptide
Take B2: in series [1], the “Specific OTA detoxification activities in % compared to the enzyme of SEQ ID NO: 1, pH 6.0” value is recorded as 138% and the “Specific OTA detoxification activities in % compared to the enzyme of SEQ ID NO: 1, pH 7.5” value turned out to be 84%. The “Enzymatic activity remaining after incubation, compared to SEQ ID NO: 1 (set to 100%)” value in series [2] is 35%.

B3: 308 (protein)
chain: MTTRTRILTAFLSLLAANACAADAAPAAPHTVVLRAARMFDGASGKLVDHPQLTIVGNKIVRIAQGDKAEVPAGAEVVDLGDATLLPGFIDAHVHLSGQSSDNWYGDFFDNMMRFPAEQALYGAYYARITLEAGFTSVRDVGSTDWVALGLRNAIDAGKVPGPRMLVSNYAVGSTGGHADQDPIPPHKLPLAGPLQGVCNGPEECRAAVRYQIKYGANVIKFMPSGGVLSLSDPVDAPELSQDEMNAVIGESHAWGRKVAAHAHGDKAAKMAVAAGVDSIEHGSFIEDDTLRAMKAKNVYLVPTISAAAHVEEKIGTFPPVIAEKGRAAVAHLRQTFRHAVQIGVPIALGTDAGVGAHGSNAREFRYMVENGLTPAQALLAGTANAARLLGTFDRVGTLEAGKLADVVAVPGNPIADITVTERPLFVMKDGVVVRRDAVR
modifications: exemplary polypeptide
Consider B3, for which, in series [1], the “Specific OTA detoxification activities in % compared to the enzyme of SEQ ID NO: 1, pH 6.0” value stood at 171% and the “Specific OTA detoxification activities in % compared to the enzyme of SEQ ID NO: 1, pH 7.5” value stood at 117%. Also, in series [2], the “Enzymatic activity remaining after incubation, compared to SEQ ID NO: 1 (set to 100%)” value came to 39%.

B4: 311 (protein)
chain: MTTRTRILTAFLSLLAANACAADAAPAAPHTVVLRAARMFDGASGKLVDHPQLTIVGNKIVRIAQGDKAEVPAGAEVVDLGDATLLPGFIDAHVHLSGQSSDNWYGDFFDNMMRFPAEQALYGAYYARITLEAGFTSVRDVGSTDWVALGLRNAIDAGKVPGPRMLVSNYAVGSTGGHADQDPIPPHKLPLAGPLQGVCNGPEECRAAVRYQIKYGANVIKFMPSGGVLSLSDPVDAPELSQDEMNAVIGESHAWGRKVAAHAHGDKAAKMAVAAGVDSIEHGSFIEDDTLRAMKAKNVYLVPTISAVAHVEEKIGTFPPVIAEKGRAALAHLRQTFRHAVQIGVPIALGTDAGVGAHGSNAREFRYMVENGLTPAQALLAGTANAARLLGTFDRVGTLEAGKLADVVAVPGNPIADITVTERPLFVMKDGVVVRRDAVR
modifications: exemplary polypeptide
B4: in series [1], the “Specific OTA detoxification activities in % compared to the enzyme of SEQ ID NO: 1, pH 6.0” value came to 89% and the “Specific OTA detoxification activities in % compared to the enzyme of SEQ ID NO: 1, pH 7.5” value was found to be 48%. In addition, the “Enzymatic activity remaining after incubation, compared to SEQ ID NO: 1 (set to 100%)” value in series [2] stood at 30%.

B5: 306 (protein)
chain: MTTRTRILTAFLSLLAANACAADAAPAAPHTVVLRAARMFDGASGKLVDHPQLTIVGNKIVRIAQGDKAEVPAGAEVVDLGDATLLPGFIDAHVHLSGQSSDNWYGDFFDNMMRFPAEQALYGAYYARITLEAGFTSVRDVGSTDWVALGLRNAIDAGKVPGPRMLVSNYAVGSTGGHADQDPIPPHKLPLAGPLQGVCNGPEECRAAVRYQIKYGANVIKFMPSGGVLSLSDPVDAPELSQDEMNAVIGESHAWGRKVAAHAHGDKAAKMAVAAGVDSIEHGSFIEDDTLRAMKAKNVYLVPTISAAAHVEEKIGTFPPVIAEKGRAALAHLRQTFRHAVQIGVPIALGTDAGVGAHGSNAREFRYMVENGLTPAQALLAGTANAARLLGTFDRVGTLEAGKLADVVAVPGNPIADITVTERPLFVMKDGVVVRRDAVR
modifications: exemplary polypeptide
Turning to B5, in series [1], the “Specific OTA detoxification activities in % compared to the enzyme of SEQ ID NO: 1, pH 6.0” value is given as 114% and the “Specific OTA detoxification activities in % compared to the enzyme of SEQ ID NO: 1, pH 7.5” value was 74%. Moreover, in series [2], the “Enzymatic activity remaining after incubation, compared to SEQ ID NO: 1 (set to 100%)” value was determined as 36%.

B6: 310 (protein)
chain: MTTRTRILTAFLSLLAANACAADAAPAAPHTVVLRAARMFDGASGKLVDHPQLTIVGNKIVRIAQGDKAEVPAGAEVVDLGDATLLPGFIDAHVHLSGQSSDNWYGDFFDNMMRFPAEQALYGAYYARITLEAGFTSVRDVGSTDWVALGLRNAIDAGKVPGPRMLVSNYAVGSTGGHADQDPIPPHKLPLAGPLQGVCNGPEECRAAVRYQIKYGANVIKFMPSGGVLSLSDPVDAPELSQDEMNAVIGESHAWGRKVAAHAHGDKAAKMAVAAGVDSIEHGSFIEDDTLRAMKAKNVYLVPTISAAAHVEEKIGTFPPVIAEKGRAAAAHMRQTFRHAVQIGVPIALGTDAGVGAHGSNAREFRYMVENGLTPAQALLAGTANAARLLGTFDRVGTLEAGKLADVVAVPGNPIADITVTERPLFVMKDGVVVRRDAVR
modifications: exemplary polypeptide
On to B6, for which, in series [1], the “Specific OTA detoxification activities in % compared to the enzyme of SEQ ID NO: 1, pH 6.0” value came out at 78% and the “Specific OTA detoxification activities in % compared to the enzyme of SEQ ID NO: 1, pH 7.5” value came out at 91%. Moreover, the “Enzymatic activity remaining after incubation, compared to SEQ ID NO: 1 (set to 100%)” value in series [2] is listed as 39%.

B7: 309 (protein)
chain: MTTRTRILTAFLSLLAANACAADAAPAAPHTVVLRAARMFDGASGKLVDHPQLTIVGNKIVRIAQGDKAEVPAGAEVVDLGDATLLPGFIDAHVHLSGQSSDNWYGDFFDNMMRFPAEQALYGAYYARITLEAGFTSVRDVGSTDWVALGLRNAIDAGKVPGPRMLVSNYAVGSTGGHADQDPIPPHKLPLAGPLQGVCNGPEECRAAVRYQIKYGANVIKFMPSGGVLSLSDPVDAPELSQDEMNAVIGESHAWGRKVAAHAHGDKAAKMAVAAGVDSIEHGSFIEDDTLRAMKAKNVYLVPTISAAAHVEEKIGTFPPVIAEKGRAAAAHIRQTFRHAVQIGVPIALGTDAGVGAHGSNAREFRYMVENGLTPAQALLAGTANAARLLGTFDRVGTLEAGKLADVVAVPGNPIADITVTERPLFVMKDGVVVRRDAVR
modifications: exemplary polypeptide
Take B7: in series [1], the “Specific OTA detoxification activities in % compared to the enzyme of SEQ ID NO: 1, pH 6.0” value was 106% and the “Specific OTA detoxification activities in % compared to the enzyme of SEQ ID NO: 1, pH 7.5” value was determined as 48%. Besides, the “Enzymatic activity remaining after incubation, compared to SEQ ID NO: 1 (set to 100%)” value in series [2] amounted to 28%.

B8: 304 (protein)
chain: MTTRTRILTAFLSLLAANACAADAAPAAPHTVVLRAARMFDGASGKLVDHPQLTIVGNKIVRIAQGDKAEVPAGAEVVDLGDATLLPGFIDAHVHLSGQSSDNWYGDFFDNMMRFPAEQALYGAYYARITLEAGFTSVRDVGSTDWVALGLRNAIDAGKVPGPRMLVSNYAVGSTGGHADQDPVPPHKLPLLGPLQGVCNGPEECRAAVRYQIKYGANVIKFMPSGGVLSLSDPVDAPELSQDEMNAVIGESHAWGRKVAAHAHGDKAAKMAVAAGVDSIEHGSFIEDDTLRAMKAKNVYLVPTISAIAHVEEKIGTFPPVIAEKGRAAAAHLRQTFRHAVQIGVPIALGTDAGVGAHGSNAREFRYMVENGLTPAQALLAGTANAARLLGTFDRVGTLEAGKLADVVAVPGNPIADITVTERPLFVMKDGVVVRRDAVR
modifications: exemplary polypeptide
Regarding B8, in series [1], the “Specific OTA detoxification activities in % compared to the enzyme of SEQ ID NO: 1, pH 6.0” value is 25% and the “Specific OTA detoxification activities in % compared to the enzyme of SEQ ID NO: 1, pH 7.5” value came out at 24%. In series [2], the “Enzymatic activity remaining after incubation, compared to SEQ ID NO: 1 (set to 100%)” value is reported as 63%.

B9: 305 (protein)
chain: MTTRTRILTAFLSLLAANACAADAAPAAPHTVVLRAARMFDGASGKLVDHPQLTIVGNKIVRIAQGDKAEVPAGAEVVDLGDATLLPGFIDAHVHLSGQSSDNWYGDFFDNMMRFPAEQALYGAYYARITLEAGFTSVRDVGSTDWVALGLRNAIDAGKVPGPRMLVSNYAVGSTGGHADQDPVPPHKLPLMGPLQGVCNGPEECRAAVRYQIKYGANVIKFMPSGGVLSLSDPVDAPELSQDEMNAVIGESHAWGRKVAAHAHGDKAAKMAVAAGVDSIEHGSFIEDDTLRAMKAKNVYLVPTISAIAHVEEKIGTFPPVIAEKGRAAAAHLRQTFRHAVQIGVPIALGTDAGVGAHGSNAREFRYMVENGLTPAQALLAGTANAARLLGTFDRVGTLEAGKLADVVAVPGNPIADITVTERPLFVMKDGVVVRRDAVR
modifications: exemplary polypeptide
Take B9: in series [1], the “Specific OTA detoxification activities in % compared to the enzyme of SEQ ID NO: 1, pH 6.0” value is recorded as 36% and the “Specific OTA detoxification activities in % compared to the enzyme of SEQ ID NO: 1, pH 7.5” value is 46%. Besides, the “Enzymatic activity remaining after incubation, compared to SEQ ID NO: 1 (set to 100%)” value in series [2] is listed as 35%.
